# Test results as given in article PMC4980769 (2016).
# T1: AgrA full length (AgrAFL) (Staphylococcus aureus, UniProt P0A0I7 1-238)
# T1 chain: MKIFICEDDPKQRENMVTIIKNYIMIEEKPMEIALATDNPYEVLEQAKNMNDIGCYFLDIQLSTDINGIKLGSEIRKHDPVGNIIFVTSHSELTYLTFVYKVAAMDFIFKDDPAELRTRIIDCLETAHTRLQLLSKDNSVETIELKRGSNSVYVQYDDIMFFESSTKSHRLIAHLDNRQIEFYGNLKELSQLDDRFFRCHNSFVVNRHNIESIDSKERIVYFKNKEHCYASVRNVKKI
# B1: recombinant wild-type AgrC (cytosolic domain) (domain or fragment)
# chain: KEMKYKRNQEEIETYYEYTLKIEAINNEMRKFRHDYVNILTPLSEYIREDDMPGLRDYFNKNIVPMKDNLQMNAIKLNGIENLKVREIKGLITAKILRAQEMNIPISIEIPDEVSSINLNMIDLSRSIGIILDNAIEASTEIDDPIIRVAFIESENSVTFIVMNKCADDIPRIHELFQESFSTKGEGRGLGLSTLKEIADNADNVLLDTIIENGFFIQKVEIINN
# Columns and labels:
# [1] = biological target: AgrA full length (AgrAFL) (Staphylococcus aureus) (UniProt P0A0I7); test: BLI; conditions: domain or fragment
# [2] = biological target: AgrA full length (AgrAFL) (Staphylococcus aureus) (UniProt P0A0I7); test: BLI; DTT; conditions: domain or fragment
# [3] = biological target: AgrA full length (AgrAFL) (Staphylococcus aureus) (UniProt P0A0I7); test: BLI; H2O2; conditions: domain or fragment
# [4] = biological target: AgrA full length (AgrAFL) (Staphylococcus aureus) (UniProt P0A0I7); test: BLI; AgrAFL (ligand) immobilised on amine reactive 2nd generation (AR2G) tips; AgrC proteins as analytes at different concentrations; 20 mM HEPES pH 7.6, 200 mM KCl, 2% glycerol; AgrC proteins incubated separately with 5 uM DTT and H2O2; Octet Data Analysis Software v 8.0
# [5] = biological target: T1, AgrA full length (AgrAFL); test: BLI
# [6] = biological target: T1, AgrA full length (AgrAFL); test: BLI; H2O2
# [7] = biological target: T1, AgrA full length (AgrAFL); test: BLI; DTT
molecule,measurement,setting,value
recombinant AgrC Y223C protein,Kd,[1],105 nM
same,Kd,[2],44.9 nM
same,Kd,[3],31.4 nM
recombinant AgrC Y223C protein (domain or fragment),fold reduction in binding affinity against wild-type AgrC,[4],< 10 fold
B1,Kd,[5],93.1 nM
same,Kd,[6],4.21 nM
same,Kd,[7],99.8 nM
